Common to all, as to assay: cell-based or functional assay
Experiment [1] deals with GLP-1 acceptor (UniProt P43220).
Experiment [2] deals with GIP acceptor (UniProt P48546).
Experiment [3] concerns the target FGFR1/KLB acceptor (UniProt P11362).
In experiment [4] the target is IL-1RA acceptor (UniProt P14778).
Sequence of IL-1RA acceptor (P14778 18-569 limits assumed): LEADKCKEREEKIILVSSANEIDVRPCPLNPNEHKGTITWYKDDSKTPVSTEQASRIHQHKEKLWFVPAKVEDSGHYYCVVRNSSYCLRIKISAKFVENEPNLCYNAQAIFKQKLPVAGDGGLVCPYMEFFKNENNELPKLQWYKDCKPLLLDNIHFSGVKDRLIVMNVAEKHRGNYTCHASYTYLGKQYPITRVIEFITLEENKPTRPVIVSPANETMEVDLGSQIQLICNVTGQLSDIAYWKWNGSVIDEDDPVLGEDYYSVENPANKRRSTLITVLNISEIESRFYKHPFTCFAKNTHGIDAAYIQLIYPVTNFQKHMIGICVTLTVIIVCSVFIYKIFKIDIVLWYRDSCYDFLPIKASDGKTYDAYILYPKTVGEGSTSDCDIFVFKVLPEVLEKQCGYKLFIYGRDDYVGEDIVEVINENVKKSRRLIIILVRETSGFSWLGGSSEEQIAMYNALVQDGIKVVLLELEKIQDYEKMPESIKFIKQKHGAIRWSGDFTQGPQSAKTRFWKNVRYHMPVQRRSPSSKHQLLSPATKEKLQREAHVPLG

Sequence of GIP acceptor (P48546 22-466 limits assumed): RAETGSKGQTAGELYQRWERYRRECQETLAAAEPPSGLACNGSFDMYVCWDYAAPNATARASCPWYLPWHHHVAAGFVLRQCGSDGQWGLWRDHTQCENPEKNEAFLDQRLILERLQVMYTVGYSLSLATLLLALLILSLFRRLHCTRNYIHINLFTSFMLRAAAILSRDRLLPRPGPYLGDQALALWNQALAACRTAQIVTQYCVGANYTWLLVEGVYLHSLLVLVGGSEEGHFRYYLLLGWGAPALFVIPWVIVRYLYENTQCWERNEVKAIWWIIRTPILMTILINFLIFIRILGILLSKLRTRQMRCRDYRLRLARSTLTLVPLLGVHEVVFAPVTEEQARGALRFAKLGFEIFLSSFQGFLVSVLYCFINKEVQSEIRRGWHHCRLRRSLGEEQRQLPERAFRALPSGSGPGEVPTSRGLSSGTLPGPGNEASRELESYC
Sequence of rhFGF21 (Native) (Q9NSA1 29-209 limits assumed): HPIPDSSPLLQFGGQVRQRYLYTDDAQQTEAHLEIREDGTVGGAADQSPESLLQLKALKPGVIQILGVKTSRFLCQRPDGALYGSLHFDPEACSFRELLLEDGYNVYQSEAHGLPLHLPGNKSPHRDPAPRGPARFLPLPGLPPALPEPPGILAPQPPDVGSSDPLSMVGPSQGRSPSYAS
Sequence of Dulaglutide (Fc fusion) (chain): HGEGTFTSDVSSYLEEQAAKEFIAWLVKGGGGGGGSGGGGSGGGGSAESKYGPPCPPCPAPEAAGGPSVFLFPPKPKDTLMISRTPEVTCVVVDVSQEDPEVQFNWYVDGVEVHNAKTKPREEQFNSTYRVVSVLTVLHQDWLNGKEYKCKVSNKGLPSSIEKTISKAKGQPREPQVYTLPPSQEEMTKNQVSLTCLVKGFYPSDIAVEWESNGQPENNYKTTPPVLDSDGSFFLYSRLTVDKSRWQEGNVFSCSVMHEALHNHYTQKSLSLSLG
Sequence of FGFR1/KLB acceptor (P11362 22-822 limits assumed, chain 1 of 2): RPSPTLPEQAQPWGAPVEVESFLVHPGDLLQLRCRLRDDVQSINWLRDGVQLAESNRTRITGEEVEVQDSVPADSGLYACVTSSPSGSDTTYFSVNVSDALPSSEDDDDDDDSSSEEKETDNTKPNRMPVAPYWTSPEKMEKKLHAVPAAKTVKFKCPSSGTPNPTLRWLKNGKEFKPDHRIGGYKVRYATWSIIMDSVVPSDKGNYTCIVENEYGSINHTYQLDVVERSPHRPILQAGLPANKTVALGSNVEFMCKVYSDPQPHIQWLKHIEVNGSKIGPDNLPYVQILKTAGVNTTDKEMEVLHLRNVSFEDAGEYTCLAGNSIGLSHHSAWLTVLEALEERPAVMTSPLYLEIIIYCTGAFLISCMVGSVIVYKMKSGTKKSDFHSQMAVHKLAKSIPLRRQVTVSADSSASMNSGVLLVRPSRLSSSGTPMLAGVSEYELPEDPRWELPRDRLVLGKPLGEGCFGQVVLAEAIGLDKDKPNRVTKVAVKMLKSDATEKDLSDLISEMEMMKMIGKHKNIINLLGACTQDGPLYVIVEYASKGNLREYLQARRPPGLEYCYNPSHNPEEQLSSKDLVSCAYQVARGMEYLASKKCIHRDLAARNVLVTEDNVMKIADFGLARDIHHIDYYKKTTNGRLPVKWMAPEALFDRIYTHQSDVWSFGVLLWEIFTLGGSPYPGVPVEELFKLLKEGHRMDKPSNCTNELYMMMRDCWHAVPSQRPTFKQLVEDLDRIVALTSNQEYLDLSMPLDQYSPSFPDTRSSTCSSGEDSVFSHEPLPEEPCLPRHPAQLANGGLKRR
Sequence of FGFR1/KLB acceptor (Q86Z14 whole entry, chain 2 of 2, further chain): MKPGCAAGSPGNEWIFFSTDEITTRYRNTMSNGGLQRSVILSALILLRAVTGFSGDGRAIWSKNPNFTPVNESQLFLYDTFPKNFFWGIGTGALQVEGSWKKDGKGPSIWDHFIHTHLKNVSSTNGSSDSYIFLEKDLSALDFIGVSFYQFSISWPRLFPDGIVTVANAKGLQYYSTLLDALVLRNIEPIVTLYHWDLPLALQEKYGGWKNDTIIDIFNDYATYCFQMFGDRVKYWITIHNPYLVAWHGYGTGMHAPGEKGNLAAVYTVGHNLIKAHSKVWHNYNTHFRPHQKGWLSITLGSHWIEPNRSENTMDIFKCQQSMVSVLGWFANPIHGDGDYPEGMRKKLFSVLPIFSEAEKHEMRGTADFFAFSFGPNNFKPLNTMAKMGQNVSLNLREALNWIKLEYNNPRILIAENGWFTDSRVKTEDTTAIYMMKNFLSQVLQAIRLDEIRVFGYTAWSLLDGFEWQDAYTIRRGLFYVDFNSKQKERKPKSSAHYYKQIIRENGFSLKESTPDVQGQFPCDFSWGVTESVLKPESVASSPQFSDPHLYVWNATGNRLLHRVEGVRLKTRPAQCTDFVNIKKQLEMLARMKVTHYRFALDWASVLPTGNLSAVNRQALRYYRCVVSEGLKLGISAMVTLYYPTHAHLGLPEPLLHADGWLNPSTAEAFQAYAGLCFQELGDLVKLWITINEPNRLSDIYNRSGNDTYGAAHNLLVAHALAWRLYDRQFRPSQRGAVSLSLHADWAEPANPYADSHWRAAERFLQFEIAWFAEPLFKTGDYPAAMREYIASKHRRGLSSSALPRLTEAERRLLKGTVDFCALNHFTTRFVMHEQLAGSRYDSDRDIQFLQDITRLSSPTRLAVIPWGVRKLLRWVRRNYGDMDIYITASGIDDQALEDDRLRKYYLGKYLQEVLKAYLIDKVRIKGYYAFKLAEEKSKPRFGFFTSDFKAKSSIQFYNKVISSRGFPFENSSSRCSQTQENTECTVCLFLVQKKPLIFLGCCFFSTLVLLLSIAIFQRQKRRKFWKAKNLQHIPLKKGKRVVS
Sequence of GLP-1 acceptor (P43220 24-463 limits assumed): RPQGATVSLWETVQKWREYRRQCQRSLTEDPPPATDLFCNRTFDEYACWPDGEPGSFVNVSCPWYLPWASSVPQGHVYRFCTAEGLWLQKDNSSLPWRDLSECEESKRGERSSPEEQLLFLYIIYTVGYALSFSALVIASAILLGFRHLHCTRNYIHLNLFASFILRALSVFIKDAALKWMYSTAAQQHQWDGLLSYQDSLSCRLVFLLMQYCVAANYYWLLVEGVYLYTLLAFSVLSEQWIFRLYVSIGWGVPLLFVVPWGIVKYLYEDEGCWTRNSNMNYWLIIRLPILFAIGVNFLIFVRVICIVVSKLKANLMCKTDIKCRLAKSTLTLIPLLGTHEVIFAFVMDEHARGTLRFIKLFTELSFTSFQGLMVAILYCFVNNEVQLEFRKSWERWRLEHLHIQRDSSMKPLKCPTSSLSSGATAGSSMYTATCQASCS

Take Dulaglutide (Fc fusion): in experiment [1], the EC50, cAMP accumulation assay; Mean worked out at 0.00107 nM; the EC50, cAMP accumulation assay; Stable cell line, n = 6 was found to be 0.00145 nM; the EC50, cAMP accumulation assay; run 1 stood at 0.00123 nM; the EC50, cAMP accumulation assay; run 2 was 0.0009 nM.

In experiment [2], “GIP(1-39) (from UniProt P09681 52-90) (peptide)” came in with an EC50, cAMP accumulation assay; Mean of 0.0148 nM; an EC50, cAMP accumulation assay; run 1 of 0.0154 nM; an EC50, cAMP accumulation assay; run 2 of 0.0141 nM.

In experiment [3], “rhFGF21 (Native) (from UniProt Q9NSA1 29-209) (ligand)” displayed an EC50, FGFR1/KLB functional assay; Mean of 0.82 nM; an EC50, FGFR1/KLB functional assay; n = 4 of 1.17 nM; an EC50, FGFR1/KLB functional assay; run 1 of 0.75 nM; an EC50, FGFR1/KLB functional assay; run 2 of 0.88 nM.

“rhIL-1RA (Native) (from UniProt P18510 26-177) (ligand)”: in experiment [4], the IC50, NF-κB reporter gene luciferase assay with IL-1β; Mean is 0.0475 nM; the IC50, NF-κB reporter gene luciferase assay with IL-1β; n = 2 worked out at 0.0686 nM; the IC50, NF-κB reporter gene luciferase assay with IL-1β; run 1 is 0.0399 nM; the IC50, NF-κB reporter gene luciferase assay with IL-1β; run 2 stood at 0.0515 nM. Moreover, in experiment [4], the IC50, NF-κB reporter gene luciferase assay with IL-1β; run 3 stood at 0.0466 nM and the IC50, NF-κB reporter gene luciferase assay with IL-1β; run 4 worked out at 0.0519 nM.

These data come from patent publication US20240066137A1, “NOVEL PROTEIN CONJUGATE, AND USE THEREOF FOR PREVENTING OR TREATING NONALCOHOLIC STEATOHEPATITIS, OBESITY AND DIABETES” (ONEGENE BIOTECHNOLOGY INC., priority 2020, published 2024).
